Measured values published in patent US20190375799A1 (Affibody, published 2019).
Where no end group is shown, it is not given here. The star is where a group is joined. Mal‑DOTA = maleimido-mono-amide-DOTA, O=C(O)CN1CCN(CC(=O)O)CCN(CC(=O)NCCN2C(=O)CC(*)C2=O)CCN(CC(=O)O)CC1; maleimide‑DOTA = maleimide-DOTA

Columns and labels:
[1] = target: T1, albumin from rat (rat, UniProt P02770 25-608); assay: SPR (Biacore 2000): rat albumin immobilised to 831 RU, PEP06923 injected at 40 nM for 5 min, then HBS-EP
T1 construct: also called RSA
Protocol: (§1) The albumin binding polypeptides were injected at a constant flow-rate of 50 μl/min for 5 minutes, followed by injection of HBS-EP for 60 minutes. The surfaces were regenerated with one injection of 25 μl HCl, 10 mM. All samples were run in duplicates.
(§2) After subtraction of reference surface and buffer injection, curves were fitted to a 1:1 (Langmuir) binding model using BIAevaluation software with correction for mass transfer and with RUmax set as a local parameter.

[2] = target: T2, albumin from dog (dog, UniProt P49822 25-608); assay: SPR (Biacore 2000): dog albumin immobilised to 1053 RU, PEP06923 injected at 40 nM for 5 min, then HBS-EP
T2 construct: also called DSA
Protocol: as §1, §2

[3] = target: T3, albumin from mouse (mouse, UniProt P07724 25-608); assay: SPR (Biacore 2000): mouse albumin immobilised to 858 RU, PEP06923 injected at 40 nM for 5 min, then HBS-EP
T3 construct: also called MSA
Protocol: as §1, §2

[4] = target: T4, albumin from cynomolgus monkey (cynomolgus monkey, UniProt A2V9Z4 25-608); assay: SPR (Biacore 2000): cynomolgus albumin immobilised to 1046 RU, PEP06923 injected at 40 nM for 5 min, then HBS-EP
T4 construct: also called CSA
Protocol: as §1, §2

[5] = target: T4, albumin from cynomolgus monkey; assay: SPR (Biacore 2000): cynomolgus albumin immobilised to 1046 RU, PEP07986 injected at 40 nM for 5 min, then HBS-EP
Protocol: as §1, §2

[6] = target: T4, albumin from cynomolgus monkey; assay: SPR (Biacore 2000): cynomolgus albumin immobilised to 1046 RU, PEP08296 injected at 40 nM for 5 min, then HBS-EP
Protocol: as §1, §2

[7] = target: T5, human serum albumin (human, UniProt P02768 25-609); assay: SPR (Biacore 2000): human albumin immobilised to 1130 RU, PEP08296 injected at 40 nM for 5 min, then HBS-EP
T5 construct: In the purification steps HSA-Sepharose (GE Healthcare) was used instead of ALBUCULT; also called HSA; ALBUCULT (Novozymes)
Protocol: as §1, §2

[8] = target: T3, albumin from mouse; assay: SPR (Biacore 2000): mouse albumin immobilised to 858 RU, PEP08296 injected at 40 nM for 5 min, then HBS-EP
Protocol: as §1, §2

[9] = target: T1, albumin from rat; assay: SPR (Biacore 2000): rat albumin immobilised to 831 RU, PEP08296 injected at 40 nM for 5 min, then HBS-EP
Protocol: as §1, §2

[10] = target: T2, albumin from dog; assay: SPR (Biacore 2000): dog albumin immobilised to 1053 RU, PEP08296 injected at 40 nM for 5 min, then HBS-EP
Protocol: as §1, §2

[11] = target: T5, human serum albumin; assay: SPR, Biacore 2000, HSA immobilised

T4 sequence (A2V9Z4 25-608 limits assumed): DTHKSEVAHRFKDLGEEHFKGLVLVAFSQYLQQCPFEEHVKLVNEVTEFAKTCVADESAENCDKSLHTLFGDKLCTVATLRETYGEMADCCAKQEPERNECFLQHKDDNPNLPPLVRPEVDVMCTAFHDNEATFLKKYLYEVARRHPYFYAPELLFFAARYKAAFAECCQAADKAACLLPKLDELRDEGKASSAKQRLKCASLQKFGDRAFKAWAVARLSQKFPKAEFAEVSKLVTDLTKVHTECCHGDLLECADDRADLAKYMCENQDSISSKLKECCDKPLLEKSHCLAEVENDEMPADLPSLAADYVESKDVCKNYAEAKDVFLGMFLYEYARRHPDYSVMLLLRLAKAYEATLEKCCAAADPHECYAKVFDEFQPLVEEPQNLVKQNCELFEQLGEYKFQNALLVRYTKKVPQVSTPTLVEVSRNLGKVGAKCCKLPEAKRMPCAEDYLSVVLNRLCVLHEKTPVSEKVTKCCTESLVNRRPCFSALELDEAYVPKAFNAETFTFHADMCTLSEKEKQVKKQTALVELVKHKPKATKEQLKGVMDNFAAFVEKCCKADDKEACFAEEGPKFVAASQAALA
T3 sequence (P07724 25-608 limits assumed): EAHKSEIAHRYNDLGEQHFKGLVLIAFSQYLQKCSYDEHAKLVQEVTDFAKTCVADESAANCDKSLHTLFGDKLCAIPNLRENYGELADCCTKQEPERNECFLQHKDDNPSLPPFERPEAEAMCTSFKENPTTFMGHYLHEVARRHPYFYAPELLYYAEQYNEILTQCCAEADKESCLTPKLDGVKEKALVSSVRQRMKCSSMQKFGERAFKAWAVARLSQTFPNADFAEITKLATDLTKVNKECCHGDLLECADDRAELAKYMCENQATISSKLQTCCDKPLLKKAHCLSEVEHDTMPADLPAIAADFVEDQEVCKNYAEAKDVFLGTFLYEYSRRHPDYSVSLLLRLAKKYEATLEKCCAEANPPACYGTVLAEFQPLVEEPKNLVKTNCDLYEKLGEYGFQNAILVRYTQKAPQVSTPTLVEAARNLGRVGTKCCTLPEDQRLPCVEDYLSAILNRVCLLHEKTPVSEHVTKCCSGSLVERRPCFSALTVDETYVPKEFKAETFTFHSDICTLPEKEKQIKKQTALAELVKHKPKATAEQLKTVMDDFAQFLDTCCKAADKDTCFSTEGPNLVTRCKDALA
T2 sequence (P49822 25-608 limits assumed): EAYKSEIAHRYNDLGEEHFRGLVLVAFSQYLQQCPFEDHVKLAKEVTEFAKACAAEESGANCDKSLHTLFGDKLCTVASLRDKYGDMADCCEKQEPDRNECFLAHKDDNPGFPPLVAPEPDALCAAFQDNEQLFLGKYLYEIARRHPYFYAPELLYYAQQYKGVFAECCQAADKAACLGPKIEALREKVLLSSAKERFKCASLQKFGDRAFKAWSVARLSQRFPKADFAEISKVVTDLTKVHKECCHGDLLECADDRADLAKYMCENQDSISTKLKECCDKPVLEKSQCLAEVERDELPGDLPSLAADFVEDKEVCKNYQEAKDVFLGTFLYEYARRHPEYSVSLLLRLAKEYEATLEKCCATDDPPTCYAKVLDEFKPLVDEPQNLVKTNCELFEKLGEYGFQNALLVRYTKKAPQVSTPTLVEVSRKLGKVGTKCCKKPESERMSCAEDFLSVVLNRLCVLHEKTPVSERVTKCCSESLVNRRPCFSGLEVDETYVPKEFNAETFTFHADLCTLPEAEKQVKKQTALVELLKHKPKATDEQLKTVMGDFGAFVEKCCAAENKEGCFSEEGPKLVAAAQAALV
T1 sequence (P02770 25-608 limits assumed): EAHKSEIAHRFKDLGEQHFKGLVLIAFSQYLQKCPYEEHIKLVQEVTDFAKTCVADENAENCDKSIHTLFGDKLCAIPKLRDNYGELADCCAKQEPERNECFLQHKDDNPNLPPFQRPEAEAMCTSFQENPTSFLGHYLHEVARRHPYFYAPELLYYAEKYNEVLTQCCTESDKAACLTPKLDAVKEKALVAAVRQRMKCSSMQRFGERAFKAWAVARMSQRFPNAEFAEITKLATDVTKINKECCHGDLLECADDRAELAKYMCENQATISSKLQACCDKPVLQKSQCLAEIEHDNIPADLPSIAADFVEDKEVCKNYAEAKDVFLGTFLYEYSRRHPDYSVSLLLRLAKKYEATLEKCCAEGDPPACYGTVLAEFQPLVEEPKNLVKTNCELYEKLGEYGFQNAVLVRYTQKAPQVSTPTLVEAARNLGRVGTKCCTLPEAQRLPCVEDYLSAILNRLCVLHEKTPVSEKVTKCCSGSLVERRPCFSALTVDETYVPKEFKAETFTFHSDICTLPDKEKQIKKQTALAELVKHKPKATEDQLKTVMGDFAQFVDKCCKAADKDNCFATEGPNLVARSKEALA

B1: PEP06923 (designed binder)
chain: GSSLAEAKVLANRELDKYGVSDFYKRLINKAKTVEGVEALKLHILAALP
notes: Expressed as MGSS-[PP###]; also called non-inventive polypeptide
binding result [1]: binds | binding result [2]: binds | binding result [3]: binds | binding result [4]: binds

GSLAEAKEAANAELDSYGVSDFYKRLIDKAKTVEGVEALKDAILAALP (designed binder) [PEP07986]
binding result [5]: binds

GSLAEAKEAANAELDC(Mal‑DOTA)YGVSDFYKRLIDKAKTVEGVEALKDAILAALPG (designed binder, also called DOTA-conjugated PEP08185) [PEP08296]
binding result [6]: binds | binding result [7]: binds | binding result [8]: binds | binding result [9]: binds | binding result [10]: binds

B2: PEP07975 (designed binder)
chain: ALASAKEAANAELDC(maleimide‑DOTA)YGVSDFYKRLIDKAKTVEGVEALKDAILAALP-NH2
notes: Made by solid phase peptide synthesis; also called DOTA-conjugated PEP07834; maleimide-DOTA-conjugated PEP07834-amide
binding result [11]: binds
